Consider 1 molecule from patent US20120189542A1 (published 2012).

In general, Kd refers to the constant that tells how readily two partners part at equilibrium. Read a low Kd as higher affinity.

This assay addresses T1, human CD19 on CD19+ human lymphoma cells (Raji, Daudi, Ramos) (human, UniProt P15391 20-556).
T1 construct: whole, on cells; The target is presented on cells; also called CD19 antigen; CD19 molecule
T1 sequence (looked up): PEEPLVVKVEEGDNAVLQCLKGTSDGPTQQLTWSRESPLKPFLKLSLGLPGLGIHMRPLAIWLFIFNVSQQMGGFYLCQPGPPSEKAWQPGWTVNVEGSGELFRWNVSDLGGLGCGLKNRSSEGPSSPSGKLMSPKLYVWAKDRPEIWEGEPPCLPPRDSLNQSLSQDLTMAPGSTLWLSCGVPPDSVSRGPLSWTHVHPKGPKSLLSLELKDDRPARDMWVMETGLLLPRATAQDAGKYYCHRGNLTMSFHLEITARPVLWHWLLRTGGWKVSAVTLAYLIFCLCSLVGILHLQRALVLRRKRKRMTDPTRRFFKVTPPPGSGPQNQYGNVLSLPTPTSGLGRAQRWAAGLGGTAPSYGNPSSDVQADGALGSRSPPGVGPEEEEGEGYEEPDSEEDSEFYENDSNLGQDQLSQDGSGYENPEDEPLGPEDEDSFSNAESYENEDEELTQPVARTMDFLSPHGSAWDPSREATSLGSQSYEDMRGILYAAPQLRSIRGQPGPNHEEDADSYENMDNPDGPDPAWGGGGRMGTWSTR
The experiment in a line: direct cell surface binding of 125I-labeled antibody to Raji cells, Scatchard plot analysis.

B1: humanized anti-CD19 antibody hA19 (antibody, V domains shown)
VH: QVQLQQSGAEVKKPGSSVKVSCKASGYAFSSYWMNWVRQRPGQGLEWIGQIWPGDGDTNYNGKFKGRATITADESTNTAYMELSSLRSEDTAFYSCARRETTTVGRYYYAMDYWGQGTTVTVSS
VL: DIQLTQSPSSLSASVGDRVTITCKASQSVDYDGDSYLNWYQQIPGKAPKLLIYDASNLVSGIPPRFSGSGSGTDYTFTISSLQPEDIATYHCQQSTEDPWTFGGGTKLQIKR
notes: It was expressed from pdHL2, which carries human IgG heavy and light chain constant regions (IgG1 per the general description); also called humanized A19 antibody
With B1, the dissociation constant Kd came to 1.1 nM. That is a single-digit nanomolar value.
